According to article PMC2213610:

Target: VASP, endogenous in human endothelial cells (human (endogenous in EA.hy926 and ECV304)) (UniProt P50552)
Test: co-IP

VASP, endogenous in human endothelial cells (human (endogenous in EA.hy926 and ECV304)), sequence (P50552 whole entry): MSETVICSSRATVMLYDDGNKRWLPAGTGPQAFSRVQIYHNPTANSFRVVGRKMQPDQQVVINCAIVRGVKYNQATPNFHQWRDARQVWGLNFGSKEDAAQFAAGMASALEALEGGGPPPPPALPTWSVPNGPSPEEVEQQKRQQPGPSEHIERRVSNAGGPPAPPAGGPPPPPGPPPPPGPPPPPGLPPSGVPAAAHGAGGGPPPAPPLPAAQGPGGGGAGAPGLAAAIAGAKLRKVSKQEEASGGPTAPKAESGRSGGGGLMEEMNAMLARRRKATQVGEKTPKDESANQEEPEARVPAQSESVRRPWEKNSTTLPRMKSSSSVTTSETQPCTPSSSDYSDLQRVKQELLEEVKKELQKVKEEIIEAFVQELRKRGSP

“αII-spectrin (SPCN), endogenous in human endothelial cells, Q13813 1-2472” gave a percent of cellular SPCN coprecipitated of over 70%.
